B1: untagged WT (pSG5) [not stated] / VPS36 precipitated with HA beads (Fig. 4c) [not stated] (parent)
chain 1: MGNGLSDQTSILSNLPSFQSFHIVILGLDCAGKTTVLYRLQFNEFVNTVPTKGFNTEKIKVTLGNSKTVTFHFWDVGGQEKLRPLWKSYTRCTDGIVFVVDSVDVERMEEAKTELHKITRISENQGVPVLIVANKQDLRNSLSLSEIEKLLAMGELSSSTPWHLQPTCAIIGDGLKEGLEKLHDMIIKRRKMLRQQKKKR
chain 2: MDRFVWTSGLLEINETLVIQQRGVRIYDGEEKIKFDAGTLLLSTHRLIWRDQKNHECCMAILLSQIVFIEEQAAGIGKSAKIVVHLHPAPPNKEPGPFQSSKNSYIKLSFKEHGQIEFYRRLSEEMTQRRWENMPVSQSLQTNRGPQPGRIRAVGIVGIERKLEEKRKETDKNISEAFEDLSKLMIKAKEMVELSKSIANKIKDKQGDITEDETIRFKSYLLSMGIANPVTRETYGSGTQYHMQLAKQLAGILQVPLEERGGIMSLTEVYCLVNRARGMELLSPEDLVNACKMLEALKLPLRLRVFDSGVMVIELQSHKEEEMVASALETVSEKGSLTSEEFAKLVGMSVLLAKERLLLAEKMGHLCRDDSVEGLRFYPNLFMTQS

Ratio to parent data for 2 variants are collected here from publication PMC10687025, “Endosomal Arl4A attenuates EGFR degradation by binding to the ESCRT-II component VPS36” (Nature Communications, 2023).

The variants in the assay derive from B1. Description: co-immunoprecipitation (HA beads) with densitometric quantification. The following applies: with VPS36 precipitated with HA beads (Fig. 4c); HeLa cell lysates; parent: 1; read off a plot.
Consider chain 1 MGNGLSDQTSILSNLPSFQSFHIVILGLDCAGKTTVLYRLQFNEFVNTVPNKGFNTEKIKVTLGNSKTVTFHFWDVGGQEKLRPLWKSYTRCTDGIVFVVDSVDVERMEEAKTELHKITRISENQGVPVLIVANKQDLRNSLSLSEIEKLLAMGELSSSTPWHLQPTCAIIGDGLKEGLEKLHDMIIKRRKMLRQQKKKR [chain 1 T51N], for which the ratio to parent turned out to be 2.6.

chain 1 MGNGLSDQTSILSNLPSFQSFHIVILGLDCAGKTTVLYRLQFNEFVNTVPTKGFNTEKIKVTLGNSKTVTFHFWDVGGLEKLRPLWKSYTRCTDGIVFVVDSVDVERMEEAKTELHKITRISENQGVPVLIVANKQDLRNSLSLSEIEKLLAMGELSSSTPWHLQPTCAIIGDGLKEGLEKLHDMIIKRRKMLRQQKKKR [chain 1 Q79L]: the ratio to parent is 1.4.
